Experimental data from patent US20220017612A1 (TILOS THERAPEUTICS, published 2022).

Experiments:
[1] = target: T1, fusion protein of a human IgG1 Fc domain and human LAP-TGFβ1 (human, UniProt P01137 30-390); assay: BLI (Octet)
T1 construct: printed both as Fc-huB1 and LAP-TGFβ-Fc; also called Fc-huB1; Fc-human LAP

[2] = target: T2, human LAP-TGFβ1 overexpressed on cells (human, UniProt P01137 30-390); assay: flow cytometry; black bar HT1080-huB1, grey bar HT1080
T2 construct: HT1080 or P3U1 cells overexpressing wild-type human LAP-TGFβ1; also called HT1080-huB1; HT1080-hβ1
T2 sequence (P01137 30-390): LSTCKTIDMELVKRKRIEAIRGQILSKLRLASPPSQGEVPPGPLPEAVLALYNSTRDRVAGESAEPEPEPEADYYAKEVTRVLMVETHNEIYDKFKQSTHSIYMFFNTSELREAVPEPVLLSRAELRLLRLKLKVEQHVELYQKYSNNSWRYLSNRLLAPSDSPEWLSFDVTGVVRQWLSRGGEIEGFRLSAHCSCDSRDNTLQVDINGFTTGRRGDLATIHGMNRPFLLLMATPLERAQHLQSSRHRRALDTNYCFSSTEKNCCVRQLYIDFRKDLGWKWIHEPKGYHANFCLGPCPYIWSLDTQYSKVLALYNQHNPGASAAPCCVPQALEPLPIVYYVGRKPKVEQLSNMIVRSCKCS

T1 sequence (P01137 30-390 limits assumed): as the sequence (P01137 30-390) above

Kd [1] | koff [1] | kon [1] | binding result [2] | Binder
0.48 nM | 0.000747 s⁻¹ | 1.57e+06 M⁻¹ s⁻¹ |  | 20E6_H2L1 (antibody, human IgG1, kappa, V domains shown) VH: QVQLVQSGAEVKKPGASVKVSCKASGYTFTSYWMHWVRQAPGQGLEWIGRIDPNSGGIKYNEKFKSRVTLTVDKSSSTAYMELSRLRSDDTAVYYCARWDYGGYFDVWGQGTLVTVSS VL: DIQMTQSPSSLSASVGDRVTITCRASQDITNYLNWYQQKPGKAVKLLIYYTSRLHSGVPSRFSGSGSGTDYTLTISSLQPEDFATYFCQQGDTLPWTFGQGTKLEIKR
0.51 nM | 0.000814 s⁻¹ | 1.59e+06 M⁻¹ s⁻¹ |  | 20E6_H0L1 (antibody, human IgG1, kappa, V domains shown) VH: QVQLVQSGAEVKKPGASVKVSCKASGYTFTSYWMHWVRQAPGQGLEWMGRIDPNSGGIKYNEKFKSRVTMTRDTSISTAYMELSRLRSDDTAVYYCARWDYGGYFDVWGQGTLVTVSS VL: DIQMTQSPSSLSASVGDRVTITCRASQDITNYLNWYQQKPGKAVKLLIYYTSRLHSGVPSRFSGSGSGTDYTLTISSLQPEDFATYFCQQGDTLPWTFGQGTKLEIKR
0.48 nM | 0.000677 s⁻¹ | 1.41e+06 M⁻¹ s⁻¹ |  | 20E6_H1L1 (antibody, human IgG1, kappa, V domains shown) VH: QVQLVQSGAEVKKPGASVKVSCKASGYTFTSYWMHWVRQAPGQGLEWIGRIDPNSGGIKYNEKFKSRVTLTVDTSISTAYMELSRLRSDDTAVYYCARWDYGGYFDVWGQGTLVTVSS VL: DIQMTQSPSSLSASVGDRVTITCRASQDITNYLNWYQQKPGKAVKLLIYYTSRLHSGVPSRFSGSGSGTDYTLTISSLQPEDFATYFCQQGDTLPWTFGQGTKLEIKR
 |  |  | binds | Q75K_L19V (antibody, human IgG1, kappa, also called 28G11_H2L3 with HC Q75K and LC L19V) heavy: not shown light: DIQMTQSPSSLSASVGDRVTISCRASQDISNYLNWYQQKPGKTVKLLIYYTSRLHSGVPSRFSGSGSGTDYTLTISSLQPEDVATYFCQQGDTLPWTFGQGTKLEIKRTVAAPSVFIFPPSDEQLKSGTASVVCLLNNFYPREAKVQWKVDNALQSGNSQESVTEQDSKDSTYSLSSTLTLSKADYEKHKVYACEVTHQGLSSPVTKSFNRGEC
 |  |  | binds | S76N_F87Y (antibody, human IgG1, kappa, V domains shown, also called 28G11_H2L3 with HC S76N and LC F87Y) VH: EVQLVESGGGLVQPGGSLRLSCAASGFTFTDYYMSWVRQAPGKGLEWLGFIRNKPNGYTTEYSASVKGRFTISRDNSQNSLYLQMNSLKTEDTAVYYCARYTGGGYFDYWGQGTLLTVSS VL: DIQMTQSPSSLSASVGDRLTISCRASQDISNYLNWYQQKPGKTVKLLIYYTSRLHSGVPSRFSGSGSGTDYTLTISSLQPEDVATYYCQQGDTLPWTFGQGTKLEIKR
 |  |  | binds | Q75K_T43V (antibody, human IgG1, kappa, V domains shown, also called 28G11_H2L3 with HC Q75K and LC T43V) VH: EVQLVESGGGLVQPGGSLRLSCAASGFTFTDYYMSWVRQAPGKGLEWLGFIRNKPNGYTTEYSASVKGRFTISRDNSKSSLYLQMNSLKTEDTAVYYCARYTGGGYFDYWGQGTLLTVSS VL: DIQMTQSPSSLSASVGDRLTISCRASQDISNYLNWYQQKPGKVVKLLIYYTSRLHSGVPSRFSGSGSGTDYTLTISSLQPEDVATYFCQQGDTLPWTFGQGTKLEIKR
 |  |  | binds | Q75K_V44P (antibody, human IgG1, kappa, V domains shown, also called 28G11_H2L3 with HC Q75K and LC V44P) VH: EVQLVESGGGLVQPGGSLRLSCAASGFTFTDYYMSWVRQAPGKGLEWLGFIRNKPNGYTTEYSASVKGRFTISRDNSKSSLYLQMNSLKTEDTAVYYCARYTGGGYFDYWGQGTLLTVSS VL: DIQMTQSPSSLSASVGDRLTISCRASQDISNYLNWYQQKPGKTPKLLIYYTSRLHSGVPSRFSGSGSGTDYTLTISSLQPEDVATYFCQQGDTLPWTFGQGTKLEIKR
 |  |  | binds | T30S_T43V (antibody, human IgG1, kappa, V domains shown, also called 28G11_H2L3 with HC T30S and LC T43V) VH: EVQLVESGGGLVQPGGSLRLSCAASGFTFSDYYMSWVRQAPGKGLEWLGFIRNKPNGYTTEYSASVKGRFTISRDNSQSSLYLQMNSLKTEDTAVYYCARYTGGGYFDYWGQGTLLTVSS VL: DIQMTQSPSSLSASVGDRLTISCRASQDISNYLNWYQQKPGKVVKLLIYYTSRLHSGVPSRFSGSGSGTDYTLTISSLQPEDVATYFCQQGDTLPWTFGQGTKLEIKR
 |  |  | binds | S76N_WT (antibody, human IgG1, kappa, V domains shown, also called 28G11_H2L3 with HC S76N) VH: EVQLVESGGGLVQPGGSLRLSCAASGFTFTDYYMSWVRQAPGKGLEWLGFIRNKPNGYTTEYSASVKGRFTISRDNSQNSLYLQMNSLKTEDTAVYYCARYTGGGYFDYWGQGTLLTVSS VL: DIQMTQSPSSLSASVGDRLTISCRASQDISNYLNWYQQKPGKTVKLLIYYTSRLHSGVPSRFSGSGSGTDYTLTISSLQPEDVATYFCQQGDTLPWTFGQGTKLEIKR
 |  |  | binds | T30S_F87Y (antibody, human IgG1, kappa, V domains shown, also called 28G11_H2L3 with HC T30S and LC F87Y) VH: EVQLVESGGGLVQPGGSLRLSCAASGFTFSDYYMSWVRQAPGKGLEWLGFIRNKPNGYTTEYSASVKGRFTISRDNSQSSLYLQMNSLKTEDTAVYYCARYTGGGYFDYWGQGTLLTVSS VL: DIQMTQSPSSLSASVGDRLTISCRASQDISNYLNWYQQKPGKTVKLLIYYTSRLHSGVPSRFSGSGSGTDYTLTISSLQPEDVATYYCQQGDTLPWTFGQGTKLEIKR
 |  |  | binds | T30S_V44P (antibody, human IgG1, kappa, V domains shown, also called 28G11_H2L3 with HC T30S and LC V44P) VH: EVQLVESGGGLVQPGGSLRLSCAASGFTFSDYYMSWVRQAPGKGLEWLGFIRNKPNGYTTEYSASVKGRFTISRDNSQSSLYLQMNSLKTEDTAVYYCARYTGGGYFDYWGQGTLLTVSS VL: DIQMTQSPSSLSASVGDRLTISCRASQDISNYLNWYQQKPGKTPKLLIYYTSRLHSGVPSRFSGSGSGTDYTLTISSLQPEDVATYFCQQGDTLPWTFGQGTKLEIKR
 |  |  | binds | S76N_V44P (antibody, human IgG1, kappa, V domains shown, also called 28G11_H2L3 with HC S76N and LC V44P) VH: EVQLVESGGGLVQPGGSLRLSCAASGFTFTDYYMSWVRQAPGKGLEWLGFIRNKPNGYTTEYSASVKGRFTISRDNSQNSLYLQMNSLKTEDTAVYYCARYTGGGYFDYWGQGTLLTVSS VL: DIQMTQSPSSLSASVGDRLTISCRASQDISNYLNWYQQKPGKTPKLLIYYTSRLHSGVPSRFSGSGSGTDYTLTISSLQPEDVATYFCQQGDTLPWTFGQGTKLEIKR
 |  |  | no binding | T30S_Y71F (antibody, human IgG1, kappa, V domains shown, also called 28G11_H2L3 with HC T30S and LC Y71F) VH: EVQLVESGGGLVQPGGSLRLSCAASGFTFSDYYMSWVRQAPGKGLEWLGFIRNKPNGYTTEYSASVKGRFTISRDNSQSSLYLQMNSLKTEDTAVYYCARYTGGGYFDYWGQGTLLTVSS VL: DIQMTQSPSSLSASVGDRLTISCRASQDISNYLNWYQQKPGKTVKLLIYYTSRLHSGVPSRFSGSGSGTDFTLTISSLQPEDVATYFCQQGDTLPWTFGQGTKLEIKR
 |  |  | binds | Q75K_WT (antibody, human IgG1, kappa, also called 28G11_H2L3 with HC Q75K) heavy: not shown light: DIQMTQSPSSLSASVGDRLTISCRASQDISNYLNWYQQKPGKTVKLLIYYTSRLHSGVPSRFSGSGSGTDYTLTISSLQPEDVATYFCQQGDTLPWTFGQGTKLEIKRTVAAPSVFIFPPSDEQLKSGTASVVCLLNNFYPREAKVQWKVDNALQSGNSQESVTEQDSKDSTYSLSSTLTLSKADYEKHKVYACEVTHQGLSSPVTKSFNRGEC
 |  |  | binds | S76N_T43V (antibody, human IgG1, kappa, V domains shown, also called 28G11_H2L3 with HC S76N and LC T43V) VH: EVQLVESGGGLVQPGGSLRLSCAASGFTFTDYYMSWVRQAPGKGLEWLGFIRNKPNGYTTEYSASVKGRFTISRDNSQNSLYLQMNSLKTEDTAVYYCARYTGGGYFDYWGQGTLLTVSS VL: DIQMTQSPSSLSASVGDRLTISCRASQDISNYLNWYQQKPGKVVKLLIYYTSRLHSGVPSRFSGSGSGTDYTLTISSLQPEDVATYFCQQGDTLPWTFGQGTKLEIKR
